Data taken from the DeepSol protein solubility set.

Experiment: soluble on expression in E. coli; label from the status in PepcDB or PDB records

Sequence | soluble on expression in E. coli
MEAVKTFNSELYSLNDYKPPISKAKMTQITKAAIKAIKFYKHVVQSVEKFIQKCKPEYKVPGLYVIDSIVRQSRHQFGQEKDVFAPRFSNNIISTFQNLYRCPGDDKSKIVRVLNLWQKNNVFKSEIIQPLLDMAAALEHHHHHH | soluble
MSLENHHEAKTKLGQLWKLGNHYLLCGDATKLSDVEKLLQGKKANLVVTDPPYNVAVKSDNKELNESGREKIMNDDMSDEEFDQFLMSVFQNYSNAMRDDSAIYVFHGSSYQREFENSMNAAGIVVRSQCIWVKNNATFGWSQYRWQHEPVFYAHKKKQAPSWYGDRKQTTIWQDDLLEDLPATIWKVPRDDVATYYHPTQKPLSLIAIPVRNSSKRQDIVLDLFGGSGSTLMTCEQLNRICYTLELDPLFCDVIIERFEKSTGIIAELVEGHHHHHH | soluble
MGDVAGMAYLDSMSNEKVWFGYTLKEAQAQQIGLGLDLKGGMNVILKLNASDLLRNLSNKSLDPNFNKALENAAKSTEQSDFIDIFVKEYRKLDPNGRLAVIFGSGDLRDQITAKSTDADVVRLLKEKYNSAVEASFNVLRARIDAFGVVAPNLQRLEGQGRILVELPGVKDPERVRTLLQRSANLQFWRTYKFEEVSGDLIAANDRLSELAMNNTDATPETEPATTDSVAATADSAAVQAVADSATVAQKEAKDATRKDALFSLLTPVNRGGAVVGVARRANMAQISEMLQQAHDLKVTREDVLFLWGAKAIEDPETKKETDLYELYAIRTNRTGDPDLGGDVVTSAKSDIQNDFGRSEPIVSMTMNEEGARKWARITKDNVGRAIAIVLDGVVYSAPNVNDEITGGRSQISGHFTVEEAGDLANVLNSGKMDATVSIEQENVIGPTLGAESIKA | not soluble
MASDTPGFYMDKLNKYRQMHGVAITYKELSTSGPPHDRRFTFQVLIDEKEFPEAKGRSKQEARNAAAKLAVDILDNENKVDCHT | soluble
MTTLEILRSGPLALVEDLGRAGLAHLGVGRSGAADRRSHTLANRLVANPDDWATVEVTFGGFSARVRGGDVDIAVTGADTDPTVNGIMVGTNSIHHVRDGQVISLGTPRAGLRTYLAVRGGVCVEPVLGSRSYDVMSAIGPSPLRAGDVLPVGEHTDDYPELDQAPVAAIEEHLVELRVVPGPRDDWLVDPDALVHTIWMASNRSDRVGMRLQGRPLQHRWPDRQLPGEGVTRGAIQVPPNGLPVILGPDHPITGSYPVVGVITDEDIDKVAQIRPGQYVRLHWARPRSRLPGQGVTQAW | soluble
GSKKHSVLHLVPVNITSKADSDVTEVMWQPVLRRGRGLEAQGDIVRVWDTGIYLLYSQVLFHDVTFTMGQVVSREGQGRRETLFRCIRSMPSDPDRAYNSCYSAGVFHLHQGDIITVKIPRANAKLSLSPHGTFLGFVKL | soluble
MARTEIWLRLMYVGDLYGEAMLNMANSLIRQPQINRTHLQEAGLTARQAERFLQLPAGVLDETLRWLELPQHHFLCADSEIYPPQLRAIDDYPGAIFIDGDPACLHTCQLAVVGSRSHSWYGERWGRLLCESLAKSGLTITSGLARGIDGVAHNAAVSMGGKSVAVLGNGLAKIYPRRHAMLAENLIATGGAVVSEFPLSTPPLPQHFPRRNRIISGLSKGVLVIEAALRSGSLVTARCALEQGRDVFALPGPIGSPGSEGTHWLIKQGATLVTTPEDILENLQYGLHWLPTTAENSLYSLNQDEAALPFPELLANVGDEVTPVDVVAERAGQPVPAVVAQLLELELAGWIAAVPGGYVRLRRASHVRRTNVFV | not soluble
MGSDKIHHHHHHMDEIELRHILHMNPELSFKEYRTKETLRKAVIEIGYEKIIEVAGTGLVIEKKETEDPYVVLRADMDALPIKEETGWEFASRNEYMHACGHDFHMSALYGAMKRLRNVKKNFLFVFQPAEETGGGAKEVVDFLKDKYEIKAAVGFHVTDEYDAGTVASRPGVLFASATEFDVYFKGVPAHVAFAEKGKDALKAAVSFLGWLYNKKWNALVGVGKISGGRARNIVPDEIKLEGTIRSEALRITEEVISNMVKQLGELKEEMGVDFAVERGSVYPEVKVDQNLFETLRETCQRLGFSFVECDMKWTGEDFGYFSQVFPSLLFWFGVGEGERFGLHHPRFLPNDRYIPMAADLLAELAMVI | not soluble
MAHHHHHHMVKETGLYDELGISPDATEPQIRSAYRRKALQYHPDKNSGDPAAAEKFKKVAEAYEILSDAERRKQYDTFGRNGPGGAAGGSGGVPGGGFGSSFGPGTDPMDIFSSFFGFASGGGPGASRQQRPAKPSFILVVLQCSLEELYCGTVKVLQVRRRRLCPSCHGHGTSSGRPSPVCPQCKGNKTVTKALNFGGLTAYQQCRCDHCEGLGKLPIRLPCARCGPVYDAHQRAPLSGTRKPDPLPRGVVVDEKMIKVSIEPGTEDSDALNYVGQGDELPGFGAVGDVLVVIEQLPHPHYHRLNSTDLLLSNCRVPLGCLFRDAFSIPIELLDGRVLRLATPLREGNVPHFLFDSQHVFVVDGEGMPLKGRKGGGAAADANHDDSGAADDVAYRKKGKLYLCVNVVFPSSLTPAQVDIIAKALGGDHERDPAATGEDAGRVVTLQPHHSPAPSWYTVDTEGNAWYQPNGPATAKKKRKATSTTA | not soluble
MGSDKIHHHHHHMIAHPCYVDKFSQQVHFHAIDFARSRWNIFLLWQLKNLIQQIQPAIVHAQAGKAAELIARIKPFLSGPKFITTVHGTKKNKSAYLAGDAVIAVSQALTQGIPESKAHVVYNGVYPQPVLTTENKEKLLQSIQKDFTELDTSKRVVMCIGRLEPVKNISLLIESMQQIDANLWIVGDGSLRASLEKQVSELNMQNRVAFLGFRTDARDLVQLADIVVLSSDREGFPLVMVEALQADKAMASTKVNGVIEWLPEQYLAEIGDTQGLAKAIEYALQPEAQNDFGPLYAKAKAELTVPAMAEQTLNIYKGLLKT | not soluble
SNAKIGVLQFVSHPSLDLIYKGIQDGLAEEGYKDDQVKIDFMNSEGDQSKVATMSKQLVANGNDLVVGIATPAAQGLASATKDLPVIMAAITDPIGANLVKDLKKPGGNVTGVSDHNPAQQQVELIKALTPNVKTIGALYSSSEDNSKTQVEEFKAYAEKAGLTVETFAVPSTNEIASTVTVMTSKVDAIWVPIDNTIASGFPTVVSSNQSSKKPIYPSATAMVEVGGLASVVIDQHDLGVATGKMIVQVLKGAKPADTPVNVFSTGKSVINKKIAQELGITIPESVLKEAGQVI | soluble
MRPCRTGREQMTDTTMQLLSQGTDHVKVPDFDILAEGKTLSGVAERLMSLSLTDNRGFEADQLTITLDDADGQLQLPPRGARLTVLIGWKGEPLTEKGTCRFNLSMQHPFQLSLSVF | not soluble
MSLSETATQAPQPANVLLEVNDLRVTFATPDGDVTAVNDLNFTLRAGETLGIVGESGSGKSQTAFALMGLLATNGRIGGSATFNGREILNLPERELNTLRAEQISMIFQDPMTSLNPYMRVGEQLMEVLMLHKGMSKAEAFEESVRMLDAVKMPEARKRMKMYPHEFSGGMRQRVMIAMALLCRPKLLIADEPTTALDVTVQAQIMTLLNELKREFNTAIIMITHDLGVVAGICDKVLVMYAGRTMEYGKARDVFYQPVHPYSIGLLNAVPRLDSEGAEMLTIPGNPPNLLRLPKGCPFQPRCPHAMEICNNAPPLEAFSPGRLRACFKPVEELL | not soluble
MSLVNMEFLKRSFAPLTEKQWQEIDNRAREIFKTQLYGRKFVDVEGPYGWEYAAHPLGEVEVLSDENEVVKWGLRKSLPLIELRATFTLDLWELDNLERGKPNVDLSSLEETVRKVAEFEDEVIFRGCEKSGVKGLLSFEERKIECGSTPKDLLEAIVRALSIFSKDGIEGPYTLVINTDRWINFLKEEAGHYPLEKRVEECLRGGKIITTPRIEDALVVSERGGDFKLILGQDLSIGYEDREKDAVRLFITETFTSRLSTRRPEGHHHHHH | soluble
MSSKLKISLSCGDYDRTRALFDGRAPIEGCEVTAVPLEPEEAFHRAFRYHEYDVTEISMSSHMMTTARGDNEYIAIPAFLSRVFRHSGIYVRTDRDIDKPQDLRGKTIGVPEYQITANVWIRGILEDAYGVKPQDIKWRRGGIEEPGRGERAPIELPDGIDLQQIPDDKTLSDMLEAGEIDGYIGARAPSCFLRGAPNVGRLFNDYLKTEQDYFRETRIFPIMHMVGIRRSLVEQNPWLPVSVYKAFLKAKMLAVKELNEICHLAVTLPWMVHHYNAARELMGDDYWPYGLDANRHVIETFARYHYGQGLSRRLVKPEELFAASSLDLSKIMAGDPNSLEHHHHHH | not soluble
MAHHHHHHMFLAATLDGVRSILSRIDPRQLHLYEIIREGSPCHLYLDVERESNHTALQHVIAVDDDSTSSSVEEADSLVQVEEDVGGTRRIVFQCCQSRYQELRRLAVRDPTDVCGLDCRIEPDNRNTCDVLLSALNSFVRDRHPSWVPPGLQAEGPGSVFADAWVLESVPLSGAATKFSQHYILKLHGRMFESTNSVKAFVRDFVAHVRERAAHDSQLHGALFFHKPPAWYPVFRELPLDYPRTTFPYLPRRCVIDEAVYSKNRMMRCVGSCKLGKQSVLLPYRHYVAGSCVEYFSNSANAASVSLDVFLSTLIAHRFAKDVAPVSLIKLTEEIEAPKNTRACALPASVSEGTAPATLHTVSLDVDIALLTSSLQRAYSQVANRACTVAQPHSLHGRFLSFSVRGTRYCQHIGREHKSNNVYLVVDTERMTFVQKCFDPDCASYRSPPRLLGGTP | not soluble
MGSDKIHHHHHHMKYIINHSNDTAFNIALEEYAFKHLLDEDQIFLLWINKPSIIVGRHQNTIEEINRDYVRENGIEVVRRISGGGAVYHDLNNLNYTIISKEDENKAFDFKSFSTPVINTLAQLGVKAEFTGRNDLEIDGKKFCGNAQAYINGRIMHHGCLLFDVDLSVLANALKVSKDKFESKGVKSVRARVTNIINELPKKITVEKFRDLLLEYMKKEYPEMTEYVFSEEELAEINRIKDTKFGTWDWNYGKSPEFNVRRGIKFTSGKVEVFANVTESKIQDIKIYGDFFGIEDVAAVEDVLRGVKYEREDVLKALKTIDITRYFAGISREEIAEAVVG | soluble
AFSFAAEHGLELDKVDIDLTDKAAMQDGARTFANYCMGCHSAKFQRYERVADDLGIPHELMLEKLVFTGAKIGDHMQIGMKPSDAKTWFGAAPPDLTLVARVRGTDWLYTYLRSFYEDPSRPYGVNNKVFPNVGMPNVLVGLQGNQVVGCKQVQTVVDGKKQFDPLTGSPLTHEACDQLTITPNSGTLTAEQFDEKVKNLVTFLAYSANP | not soluble
MKPKETVCFNIKYSWHAISRMYNERASKYGTTAAVGFILLNIDVEKGTAATHIGPALGMEATSLSRVFNTMEQDGLIERRNDSSDKRKVTIFLTALGKDKRQIAKDFVLDFNNKVREQVSESKLNTFFEVLHEIQSIIDNKNTSLT | soluble
MEDNRLVINRHRATQVLFQLVNISTQLSYQFFCKDSVLLLRIVQKIQSNSWLTSCCARKTVTTLRIKTQPANNKH | not soluble
MLEDLIGKAYLESAEDRRRGDRSEEVEAIRKYIRSARRTVVPNWNAEKVDAINDVLRSFNLREAEHLQFNTNWADLTRMPAVTKALMALDISGADLVIARGRLGVPGSGSLLVIMDSRGRLLSAAMSPPHVIHSMEVREAVRSEMTHALERIGFKR | soluble
MKIMEINVEHILDCLDQYGKGELTEEQLVKALTYDEKMFLIMHQGLLGENSDSEDDFDVQDWLEEEESFFMVVEVNENLCRQAESVLEEIGVEMPDAIEGFLNQLVEKKQFPVVINS | not soluble
MHQFTSKQDFCHWFNQFQHPQLVENWADIHGVVTITAQGEVKITLPFASNELQRTLQEWIQQQQAFKAVAAFPYHIELGVKALETQVSNAVKGVKNIIAVSSAKGGVGKSTTAVNLALAIAQSGAKVGLLDADIYGPSVPMMLGQEDAKPEVRDGKWMEPIFAHGIYTHSIGYLVNKSEAAIWRGPMASKALAQLLNETDWPELDYLVIDMPPGTGDIQLTLSQQIPVTGTVLVTTPQDLALADARKGAAMFNKVNVPVVGVVENMSYHICSQCGATEHIFGMGGAEKMSQEFGLALLGQIPLHISMREDIDAGVPTVVRRPDSEHSGYYKQLADRVCSTMFWQGKAKPDAISFTMVNLEHHHHHH | not soluble
